The target in assay [1] is T1, human FcRIIIA-V158 protein (MednaBio, E1035) (human, UniProt P08637 17-208).
T1 construct: Bought; also called FcγRIIIA(V); FcgRIIIA(V)
The experiment in a line: BLI. The essentials:
(§1)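 Binding was measured by biolayer interferometry on an Octet Red96 System. Commercial human Fc receptor proteins were loaded at 20 μg/mL onto anti-penta-HIS biosensors, which were then dipped into an 8-point 1:3 dilution series of test IgG starting at 300 nM in PBS with 0.1% BSA and 0.02% Tween-20, at pH 7.2 for Fcγ receptors and pH 6 for FcRn. Kd, kon and koff were obtained by global fitting, with data fitted to a 1:1 binding model.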
In general terms: Biolayer interferometry detects binding as a change in optical thickness at a sensor tip.

Assay [2] has as its target T2, human FcRIIA protein (MednaBio, E1033) (human, UniProt P12318 34-218, limits assumed).
T2 construct: Bought; also called FcγRIIA
T2 sequence (looked up): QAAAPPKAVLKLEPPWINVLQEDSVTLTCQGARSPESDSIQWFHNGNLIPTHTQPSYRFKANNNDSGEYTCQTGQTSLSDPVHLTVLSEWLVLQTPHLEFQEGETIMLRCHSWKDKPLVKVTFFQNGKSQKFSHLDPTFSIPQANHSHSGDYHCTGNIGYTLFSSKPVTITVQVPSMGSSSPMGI
As to the kind of experiment: BLI. The method, boiled down: as §1

Assay [3] concerns the target T3, human FcRn protein (MednaBio, E1032) (human, UniProt P55899 24-297; P61769 21-119).
T3 construct: Bought; assays at pH 6
The experiment in a line: BLI. The method, boiled down: as §1

Assay [4] deals with T4, human FcRI protein (MednaBio, E1031) (human, UniProt P12314 16-288, limits assumed).
T4 construct: Bought; loaded on anti-penta-HIS biosensors; also called FcγRI
T4 sequence (P12314 16-288 limits assumed): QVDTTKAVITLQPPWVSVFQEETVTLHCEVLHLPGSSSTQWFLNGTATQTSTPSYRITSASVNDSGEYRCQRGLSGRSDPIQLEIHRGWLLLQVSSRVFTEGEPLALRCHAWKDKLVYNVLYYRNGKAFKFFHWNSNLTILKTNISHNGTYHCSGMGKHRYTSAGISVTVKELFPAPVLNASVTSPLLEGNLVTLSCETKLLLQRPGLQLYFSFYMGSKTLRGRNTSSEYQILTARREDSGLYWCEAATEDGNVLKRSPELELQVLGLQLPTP
The experiment in a line: BLI. The essentials:
as §1

The target of assay [5] is T5, human FcRIIIB protein (MednaBio, E1037) (human, UniProt O75015 17-200).
T5 construct: Bought; also called FcγRIIIB; FcgRIIIB
T5 sequence (O75015 17-200 limits assumed): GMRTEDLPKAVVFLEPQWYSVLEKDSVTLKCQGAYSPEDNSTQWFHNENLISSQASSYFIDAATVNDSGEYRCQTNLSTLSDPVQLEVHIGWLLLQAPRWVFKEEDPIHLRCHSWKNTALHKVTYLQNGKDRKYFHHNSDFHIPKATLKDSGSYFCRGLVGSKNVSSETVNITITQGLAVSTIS
As to the kind of experiment: BLI. The essentials:
as §1

For assay [6], the target named is T6, human FcRIIIA-F158 protein (MednaBio, E1036) (human, UniProt P08637 17-208).
T6 construct: Bought; also called FcγRIIIA(F)
T6 sequence (P08637 17-208 limits assumed): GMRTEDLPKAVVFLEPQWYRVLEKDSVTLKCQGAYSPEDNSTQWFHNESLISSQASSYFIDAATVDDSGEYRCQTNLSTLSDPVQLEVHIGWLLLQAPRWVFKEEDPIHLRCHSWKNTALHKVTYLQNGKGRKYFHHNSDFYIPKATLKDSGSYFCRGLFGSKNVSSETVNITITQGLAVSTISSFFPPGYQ
The experiment in a line: BLI. The method, boiled down: as §1

Assay [7] addresses T7, human FcRIIB/C protein (MednaBio, E1034) (human, UniProt P31994 43-217, limits assumed).
T7 construct: Bought as FcRIIB/C; also called FcγRIIB; CD32B
T7 sequence (looked up): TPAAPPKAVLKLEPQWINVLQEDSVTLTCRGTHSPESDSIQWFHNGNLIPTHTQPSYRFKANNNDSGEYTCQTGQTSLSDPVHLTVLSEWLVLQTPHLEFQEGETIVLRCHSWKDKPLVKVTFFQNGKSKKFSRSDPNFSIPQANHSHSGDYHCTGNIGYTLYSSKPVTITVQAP
The experiment in a line: BLI. The essentials: as §1

The target in assay [8] is T8, human FcγRIIA(R131) expressed on CHO cells (human, UniProt P12318 34-317).
T8 construct: whole, on cells
T8 sequence (looked up): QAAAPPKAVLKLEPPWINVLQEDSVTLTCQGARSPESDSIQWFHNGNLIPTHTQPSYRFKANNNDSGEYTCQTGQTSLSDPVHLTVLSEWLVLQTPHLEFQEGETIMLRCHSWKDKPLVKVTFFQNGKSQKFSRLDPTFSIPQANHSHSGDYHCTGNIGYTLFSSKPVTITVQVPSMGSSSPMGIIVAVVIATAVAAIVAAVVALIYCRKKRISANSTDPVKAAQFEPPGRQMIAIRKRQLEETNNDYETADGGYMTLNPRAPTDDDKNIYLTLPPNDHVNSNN
As to the kind of experiment: FACS, CHO cells expressing FcγRIIA(R131). As for the experimental part: For FACS analysis of the IgG mutants' binding to different FcγRs, FcγR overexpressing CHO cells were harvested using trypsin-EDTA and were suspended in cold staining buffer (3% BSA in PBS). Test IgG mutants, which were diluted in staining buffer, were added into the cells. The mixture was incubated 4° C. for 2 hours, and then washed twice with cold staining buffer and re-suspended in PE-labeled anti-human IgG followed by incubation at 4° C. for 2 hours. The mixture was washed twice with staining buffer and re-suspended in 2% PFA in PBS for FACS.
(In general: Flow cytometry measures light scatter and fluorescence of single cells or particles in a stream.)

Assay [9] deals with T1, human FcRIIIA-V158 protein (MednaBio, …). The experiment in a line: BLI. Here is the method: (§2) These IgG mutants were tested for binding to a panel of human Fc receptors (FcRs), including FcRn, using the Octet Red96 System (ForteBio, Model #Red96). Human FcR proteins were purchased commercially (FcRn, MednaBio, E1032; FcRI, MednaBio, E1031; FcRIIA, MednaBio, E1033; FcRIIB/C, MednaBio, E1034; FcRIIIA-F158, MednaBio, E1036; FcRIIIA-V158, MednaBio, E1035; FcRIIIB, MednaBio, E1037). All Fey receptor assays were performed at pH 7.2; all FcRn assays were performed at pH 6. The Fey receptors were loaded onto anti-penta-HIS1K (ForteBio, Cat #18-5122) biosensors at a concentration of 20 μg/mL. The loaded biosensors was then be dipped into an 8-point 1:3 dilution series of the test IgG molecules (including controls and the mutants described herein) in PBS with 0.1% BSA, 0.02% Tween-20 (pH 7.2) at a starting concentration of 300 nM. Kinetic analysis was performed using a 1:1 binding model and global fitting.
The source holds these as a separate data set.

The target of assay [10] is T2, human FcRIIA protein (MednaBio, E1033). The experiment in a line: BLI. As for the experimental part:
as §2
This is another data set of the same source.

In assay [11] the target is T3, human FcRn protein (MednaBio, E1032). As to the kind of experiment: BLI. As for the experimental part:
as §2
The source holds these as a separate data set.

For assay [12], the target named is T4, human FcRI protein (MednaBio, E1031). As to the kind of experiment: BLI. Here is the method: as §2
This is another data set of the same source.

In assay [13] the target is T5, human FcRIIIB protein (MednaBio, E1037). The experiment in a line: BLI. As for the experimental part: as §2
The source holds these as a separate data set.

Assay [14] concerns the target T6, human FcRIIIA-F158 protein (MednaBio, …). The experiment in a line: BLI. As for the experimental part:
as §2
The source holds these as a separate data set.

For assay [15], the target named is T7, human FcRIIB/C protein (MednaBio, E1034). The experiment in a line: BLI. Here is the method: as §2
This is another data set of the same source.

Assay [16] addresses T9, human FcγRIIC expressed on CHO cells (human, UniProt P31995 43-323).
T9 construct: whole, on cells
T9 sequence (looked up): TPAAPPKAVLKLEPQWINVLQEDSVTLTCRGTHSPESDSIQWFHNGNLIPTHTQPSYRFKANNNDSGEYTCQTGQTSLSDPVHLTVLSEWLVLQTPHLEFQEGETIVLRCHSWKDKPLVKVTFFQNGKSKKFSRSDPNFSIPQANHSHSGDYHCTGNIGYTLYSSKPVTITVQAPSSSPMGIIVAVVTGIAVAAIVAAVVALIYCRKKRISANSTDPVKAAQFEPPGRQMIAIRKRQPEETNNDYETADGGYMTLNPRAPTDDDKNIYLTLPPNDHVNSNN
As to the kind of experiment: FACS, CHO cells expressing FcγRIIC.

Read-outs that look alike come from different tables or passages of the source.

T3 sequence (P55899 24-297 limits assumed, form in doubt, chain 1 of 2): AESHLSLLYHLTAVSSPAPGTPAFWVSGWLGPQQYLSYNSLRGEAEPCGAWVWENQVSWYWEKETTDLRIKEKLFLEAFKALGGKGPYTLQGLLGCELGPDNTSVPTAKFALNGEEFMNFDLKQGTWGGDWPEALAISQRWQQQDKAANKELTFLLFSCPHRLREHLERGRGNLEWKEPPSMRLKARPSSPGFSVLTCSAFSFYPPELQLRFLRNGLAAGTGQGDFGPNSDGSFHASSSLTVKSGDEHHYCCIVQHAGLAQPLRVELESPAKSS
T3 sequence (P61769 21-119 limits assumed, form in doubt, chain 2 of 2): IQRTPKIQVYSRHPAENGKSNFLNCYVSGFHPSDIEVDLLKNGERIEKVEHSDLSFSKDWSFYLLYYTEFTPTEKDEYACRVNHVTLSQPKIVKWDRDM
T1 sequence (P08637 17-208 F176V): as the sequence (P08637 17-208 limits assumed) above, with F160V counted along it

B1: anti-CD137 IgG2 with Fc variant G2m5 (antibody)
heavy: EVQLVQSGAEVKKPGESLRISCKGSGYSFSTYWISWVRQMPGKGLEWMGKIYPGDSYTNYSPSFQGQVTISADKSISTAYLQWSSLKASDTAMYYCARGYGIFDYWGQGTLVTVSSASTKGPSVFPLAPCSRSTSESTAALGCLVKDYFPEPVTVSWNSGALTSGVHTFPAVLQSSGLYSLSSVVTVPSSNFGTQTYTCNVDHKPSNTKVDKTVERKCCVECPPCPAPPVAGPSVFLFPPKPKDTLMISRTPEVTCVVVDVSHEDPEEQFNWYVDGVEVHNAKTKPREEQFNSTFRVVSVLTVVHQDWLNGKEYKCKVSNKGLPAPIEKTISKTKGQPREPQVYTLPPSREEMTKNQVSLTCLVKGFYPSDIAVEWESNGQPENNYKTTPPMLDSDGSFFLYSKLTVDKSRWQQGNVFSCSVMHEALHNHYTQKSLSLSPGK
light: SYELTQPPSVSVSPGQTASITCSGDNIGDQYAHWYQQKPGQSPVLVIYQDKNRPSGIPERFSGSNSGNTATLTISGTQAMDEADYYCATYTGFGSLAVFGGGTKLTVLGQPKAAPSVTLFPPSSEELQANKATLVCLISDFYPGAVTVAWKADSSPVKAGVETTTPSKQSNNKYAASSYLSLTPEQWKSHRSYSCQVTHEGSTVEKTVAPTECS
notes: copies: 2 + 2
As usually defined, the Kd is the constant that tells how readily two partners part at equilibrium. Lower therefore signals tighter binding. The term koff denotes the rate constant with which the complex falls apart. Read a high koff as fast dissociation. Usually kon stands for a measure of how fast the partners come together. Regarding B1, the binding result is given as “no binding (tested: 300 nM)” in [1]; “no binding (tested: 300 nM)” in assay [4]; “no binding (tested: 300 nM)” in assay [5]; “no binding (tested: 300 nM)” in [6]; “no binding (tested: 10 ug/ml)” in [8]. Besides, the Kd in [2] is 230 nM; in assay [3] it was 14 nM; in assay [7] it was 310 nM. The results for the koff in assay [2], in assay [3] and in assay [7] were 0.14 s⁻¹, 0.011 s⁻¹ and 0.12 s⁻¹, respectively. Further, the kon is 600000 M⁻¹ s⁻¹ in [2], 800000 M⁻¹ s⁻¹ in assay [3] and 390000 M⁻¹ s⁻¹ in [7].

B2: anti-CD137 IgG4 with Fc variant G4m10 (antibody)
heavy: EVQLVQSGAEVKKPGESLRISCKGSGYSFSTYWISWVRQMPGKGLEWMGKIYPGDSYTNYSPSFQGQVTISADKSISTAYLQWSSLKASDTAMYYCARGYGIFDYWGQGTLVTVSSASTKGPSVFPLAPCSRSTSESTAALGCLVKDYFPEPVTVSWNSGALTSGVHTFPAVLQSSGLYSLSSVVTVPSSSLGTKTYTCNVDHKPSNTKVDKRVESKYGPPCPPCPAPEVSSVFLFPPKPKDTLMISRTPEVTCVVVDVSQEDPEVQFNWYVDGVEVHNAKTKPREEQFNSTYRVVSVLTVLHQDWLNGKEYKCKVSNKGFPSSIEKTISKAKGQPREPQVYTLPPSQEEMTKNQVSLTCLVKGFYPSDIAVEWESNGQPENNYKTTPPVLDSDGSFFLYSRLTVDKSRWQEGNVFSCSVMHEALHNHYTQKSLSLSLGK
light: B1 light
notes: copies: 2 + 2
Take B2: the binding result was “no binding (tested: 300 nM)” in assay [9]; “no binding (tested: 300 nM)” in assay [12]; “no binding (tested: 300 nM)” in assay [13]; “no binding (tested: 300 nM)” in assay [14]; “no binding (tested: 300 nM)” in assay [15]; “no binding (tested: 10 ug/ml)” in assay [16]. Besides, the Kd in assay [10] amounted to 83 nM; in [11], 11 nM. For the same molecule, the koff in assay [10] came to 0.037 s⁻¹; in assay [11] it was 0.0055 s⁻¹. Moreover, the kon in assay [10] worked out at 450000 M⁻¹ s⁻¹; in [11], 510000 M⁻¹ s⁻¹.

For the origin of these results see patent publication US20200392227A1 (LYVGEN BIOPHARMA, published 2020).
